Data from patent US20220403031A1 (WUXI BIOLOGICS IRELAND, published 2022).

Key:
[1] = biological target: T1, hPD-L2.ECD.His (SinoBiological-10292-H08H) (human, UniProt Q9BQ51 20-220); test: ELISA on coated protein (1 ug/mL)
T1 construct: extracellular domain; His tag
T1 sequence (looked up): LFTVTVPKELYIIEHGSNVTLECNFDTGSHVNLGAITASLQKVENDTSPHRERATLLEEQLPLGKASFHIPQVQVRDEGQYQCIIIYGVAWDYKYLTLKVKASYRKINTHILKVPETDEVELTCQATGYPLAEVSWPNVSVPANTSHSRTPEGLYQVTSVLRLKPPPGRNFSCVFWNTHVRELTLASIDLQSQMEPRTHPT
Experimental: (§1) The plate was incubated at ambient temperature for 1 hour. The binding of the antibodies to the immobilized proteins was detected by HRP-labeled goat anti-human IgG antibody. The color was developed by dispensing 100 μL of TMB substrate, and then stopped by 100 μL of 2N HCl. The absorbance was read at 450 nm and 540 nm using a microplate spectrophotometer, respectively.

[2] = biological target: T2, hCD80.ECD.His (SinoBiological-10698-H08H) (human, UniProt P33681 35-242); test: ELISA on coated protein (1 ug/mL)
T2 construct: extracellular domain; His tag
T2 sequence (looked up): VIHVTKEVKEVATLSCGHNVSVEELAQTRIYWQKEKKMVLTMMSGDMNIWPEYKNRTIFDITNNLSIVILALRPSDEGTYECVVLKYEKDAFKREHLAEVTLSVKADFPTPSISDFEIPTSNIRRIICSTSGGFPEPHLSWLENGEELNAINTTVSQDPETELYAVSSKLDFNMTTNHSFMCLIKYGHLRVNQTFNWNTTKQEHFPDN
Experimental: as §1

[3] = biological target: T3, hCD86.ECD.His (SinoBiological-10699-H08H) (human, UniProt P42081 24-247); test: ELISA on coated protein (1 ug/mL)
T3 construct: extracellular domain; His tag
T3 sequence (looked up): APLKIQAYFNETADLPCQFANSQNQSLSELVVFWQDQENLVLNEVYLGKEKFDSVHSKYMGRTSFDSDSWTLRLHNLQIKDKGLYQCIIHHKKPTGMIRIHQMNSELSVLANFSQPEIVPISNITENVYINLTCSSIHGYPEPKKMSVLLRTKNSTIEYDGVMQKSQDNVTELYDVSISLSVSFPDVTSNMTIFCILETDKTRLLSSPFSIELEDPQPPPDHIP
Experimental: as §1

[4] = biological target: T4, human PD-L1 on CHO-K1 cells (W315-CHO-K1.hPro1.C11) (human, UniProt Q9NZQ7 19-290); test: FACS on human PD-L1 CHO-K1 cells
T4 construct: whole, on cells; also called cell surface human PD-L1; Human PD-L1-expressing CHO-K1 cell
T4 sequence (Q9NZQ7 19-290): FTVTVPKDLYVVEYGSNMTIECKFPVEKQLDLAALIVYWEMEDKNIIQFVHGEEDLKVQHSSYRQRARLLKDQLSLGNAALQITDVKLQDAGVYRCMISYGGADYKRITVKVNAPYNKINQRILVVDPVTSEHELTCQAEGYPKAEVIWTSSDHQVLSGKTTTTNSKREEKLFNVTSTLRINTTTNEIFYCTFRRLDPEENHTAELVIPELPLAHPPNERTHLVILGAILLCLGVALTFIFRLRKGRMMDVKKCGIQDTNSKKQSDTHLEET
Experimental: (§2) After washing with 1×PBS/1% BSA, the secondary antibody PE-labeled goat anti-human IgG was applied and incubated with cells at 4° C. for 1 hour. […] Human IgG1 and IgG4 isotype antibodies were used as negative control. The cells were then washed and resuspended in 1×PBS/1% BSA. MFI of the cells was measured by a flow cytometer (BD) and analyzed by FlowJo (version 7.6.1).

human serum Albumin = human serum Albumin (human, UniProt P02768 25-609); test: non-specific binding ELISA, antigen coated at 2 ug/mL
Experimental: Non-specific binding ELISA was performed in 96-well high binding plates (Nunc-Immuno Plate, Thermo Scientific). The plate was coated with various antigens (as listed in the left column of Table 11) at 2 μg/mL overnight at 4° C. After blocking with 2% BSA-PBS, 10 μg/ml antibodies were added to the plate and incubated for 2 hours. […] The HRP signal was detected by adding TMB peroxidase substrate and the reaction was stopped after 12 minutes using 2M HCl. The absorbance at 450 nm was read using a microplate reader (Molecular Device). All incubation steps were performed at room temperature. The plate was washed with PBST (0.05% Tween20-PBS) between steps.

[5] = biological target: T4, human PD-L1 on CHO-K1 cells …; test: FACS affinity on human PD-L1 cells, quantitative beads
Experimental: (§3) Binding affinities of testing antibodies to cell surface human, cynomolgus and mouse PD-L1 were determined by flow cytometry on the engineering cell lines, respectively. The cells were transferred in to 96-well U-bottom plates (BD) at a density of 5×10⁴ cells/well. Antibodies to be tested were 1: 2-fold serially diluted in 1% BSA/1×PBS and incubated with cells at 4° C. for 1 hr. Then, the plates were centrifuged at 1500 rpm for 4 mins and the supernatant was discarded. The secondary antibody, Alexa647 conjugated goat anti-human IgG Fc (Jackson, Cat No. 109-605-098, Lot No. 121363), was added to re-suspend cells and incubated at 4° C. in the dark for 30 min. The cells were washed once and re-suspended in 100 μL 1% BSA/1×PBS, then measured by flow cytometry (BD Canto II) and analyzed by FlowJo. Fluorescence intensity was converted to bound molecules/cell based on the quantitative beads (Quantum™ MESF Kits, Bangs Laboratories). KD value was calculated by Graphpad Prism5.

[6] = biological target: T5, mouse PD-L1 on 293F cells (W315-293F.mPro1.C1) (mouse, UniProt Q9EP73 19-290); test: FACS affinity on mouse PD-L1 cells, quantitative beads
T5 construct: whole, on cells; also called cell surface mouse PD-L1; Mouse PD-L1-expressing 293F cell
T5 sequence (Q9EP73 19-290): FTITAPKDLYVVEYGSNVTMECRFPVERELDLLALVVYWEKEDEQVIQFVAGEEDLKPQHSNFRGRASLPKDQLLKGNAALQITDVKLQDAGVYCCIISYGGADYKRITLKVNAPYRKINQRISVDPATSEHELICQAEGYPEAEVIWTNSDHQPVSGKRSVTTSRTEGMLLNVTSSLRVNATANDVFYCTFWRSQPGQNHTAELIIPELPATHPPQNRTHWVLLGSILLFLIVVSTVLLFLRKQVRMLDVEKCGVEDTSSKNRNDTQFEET
Experimental: as §3

[7] = biological target: T4, human PD-L1 on CHO-K1 cells …; test: FACS competition: antibody titrated against 5 ug/mL human PD-1 ECD mFc on human PD-L1 CHO-K1 cells
Experimental: as §2, with “Human PD-L1 transfected W315-CHO-K1.hPro1.C11 cells were transferred into 96-well U-bottom plates at a density of 1×10⁵ cells/well. […] After” for “After”, “anti-mouse” for “anti-human”

B1: AP3R2-1A3-z12-hIgG1 (Fc fusion)
chain: EVQLVESGGGLVQPGGSLRLSCAASGHFSNLAVNWFRQAPGKERELVAGILWSGGSTFYADSVKGRFTISRGNAENMLYLQMNSLRAEDTAVYYCNTGTNWGQGTLVTVSS
notes: VHH-Fc (hIgG1) fusion of the humanized VHH; also called W3156-AP3R2-1A3-z12-hIgG1; W3156 antibody; not shown: Fc of human IgG1
B1: no binding (tested: 66.7 nM) [1]; no binding (tested: 66.7 nM) [2]; no binding (tested: 66.7 nM) [3]. For the same binder, the EC50 [4] was 0.458 nM, the binding result (human serum Albumin) was “no binding (tested: 10 µg/ml)” and the Kd [5] was 0.26 nM. It also gave a Kd [6] of 0.69 nM and an IC50 [7] of 0.871 nM.
